One assay has as its target T1, hMuSK delta 1 (Ig2-3 Fz) (human, UniProt O15146).
T1 construct: truncated extracellular domain, captured by anti-FLAG
T1 sequence (truncated extracellular domain, looked up): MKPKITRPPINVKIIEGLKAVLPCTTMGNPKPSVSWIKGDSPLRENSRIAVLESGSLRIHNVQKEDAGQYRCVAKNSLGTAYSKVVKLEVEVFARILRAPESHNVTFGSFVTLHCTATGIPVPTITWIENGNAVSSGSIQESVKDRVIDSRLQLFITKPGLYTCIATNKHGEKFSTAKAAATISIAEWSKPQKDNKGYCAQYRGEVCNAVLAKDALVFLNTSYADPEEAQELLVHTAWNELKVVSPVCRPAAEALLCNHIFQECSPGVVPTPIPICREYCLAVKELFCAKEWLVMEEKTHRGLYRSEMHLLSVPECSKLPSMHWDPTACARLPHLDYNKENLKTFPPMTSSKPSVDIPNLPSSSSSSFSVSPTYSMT
Put plainly: ELISA, hMuSK delta 1 (Ig2-3 Fz) captured on anti-FLAG coat, antibody titrated, anti-human Fc HRP detection, OD450. How it is done: For binding to MuSK domains—An ELISA plate was coated with 0.5 μg/ml of anti-FLAG (M2 clone, Sigma Cat. F3165) and incubated overnight at 4° C. Next, the plate was washed with PBS and blocked with 1×PBS 1% casein for two hours at RT. After washing the plate, human monomeric MuSK FLAG streptavidin (batch 27-6-2019) and truncated MuSK variants (batch 3-9-2019) at 1 μg/ml in PBS where incubated for one hour at RT. After washing the plate, antibodies were diluted in blocking buffer and added to the plate. After a one hour incubation at RT, the plate was washed. Next, detecting antibody was added and incubated for one hour at RT (anti-human Fc HRP (1/5000) (clone 5A9, cat. No. Ab7499, ABCAM)) in blocking buffer. Lastly, the plate was washed with PBS and TMB was added and the reaction was stopped with 0.5 M H2SO4. OD 450 nm was determined by the Tecan Sunrise ELISA plate reader.
For the MuSK domain binding ELISA, binding of anti-MuSK antibodies to FLAG captured human monomeric MuSK and truncated variants was tested (FIG. 6). 3D9b, 3F6c, 3D10a, 4D3 and 3B5 bound only to full length MuSK, no binding was observed against the truncated MuSK variants. Therefore, we conclude that our antibodies bind to the Ig1 domain.

Assay [1] addresses T2, Mouse MuSK as it stands on mouse muscle (neuromuscular junctions, C2C12 myotubes) (mouse, UniProt Q61006 22-868).
T2 sequence (looked up): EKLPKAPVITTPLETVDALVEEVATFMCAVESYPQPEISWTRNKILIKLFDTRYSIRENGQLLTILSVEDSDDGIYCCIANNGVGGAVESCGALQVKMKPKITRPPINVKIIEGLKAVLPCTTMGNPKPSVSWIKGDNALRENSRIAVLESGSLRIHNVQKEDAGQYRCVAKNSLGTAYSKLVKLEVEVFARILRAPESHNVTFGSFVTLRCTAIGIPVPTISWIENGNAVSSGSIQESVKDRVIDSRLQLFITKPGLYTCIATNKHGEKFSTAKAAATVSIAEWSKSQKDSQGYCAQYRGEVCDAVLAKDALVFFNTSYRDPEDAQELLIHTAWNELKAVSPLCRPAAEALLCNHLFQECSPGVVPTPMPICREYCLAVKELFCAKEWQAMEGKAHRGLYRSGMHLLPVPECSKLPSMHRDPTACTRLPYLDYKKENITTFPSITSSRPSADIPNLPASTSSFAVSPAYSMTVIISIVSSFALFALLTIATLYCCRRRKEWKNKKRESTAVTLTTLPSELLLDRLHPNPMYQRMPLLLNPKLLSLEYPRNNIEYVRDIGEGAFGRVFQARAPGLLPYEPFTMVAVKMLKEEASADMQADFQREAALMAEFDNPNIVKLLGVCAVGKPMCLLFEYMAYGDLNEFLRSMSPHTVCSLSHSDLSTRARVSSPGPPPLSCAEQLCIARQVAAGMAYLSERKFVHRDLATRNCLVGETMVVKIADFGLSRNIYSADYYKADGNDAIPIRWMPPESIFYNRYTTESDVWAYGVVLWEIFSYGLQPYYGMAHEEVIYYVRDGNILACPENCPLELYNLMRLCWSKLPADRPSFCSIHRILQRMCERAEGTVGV
The assay can be described thus: cell-based or functional assay.

For assay [2], the target named is T3, Human MuSK (R&D Systems, cat. 10189-MK, histidine tag) (human, UniProt O15146 24-495).
T3 construct: Bought protein; also called human monomeric MuSK-6xhis; not shown: histidine tag (6xhis)
T3 sequence: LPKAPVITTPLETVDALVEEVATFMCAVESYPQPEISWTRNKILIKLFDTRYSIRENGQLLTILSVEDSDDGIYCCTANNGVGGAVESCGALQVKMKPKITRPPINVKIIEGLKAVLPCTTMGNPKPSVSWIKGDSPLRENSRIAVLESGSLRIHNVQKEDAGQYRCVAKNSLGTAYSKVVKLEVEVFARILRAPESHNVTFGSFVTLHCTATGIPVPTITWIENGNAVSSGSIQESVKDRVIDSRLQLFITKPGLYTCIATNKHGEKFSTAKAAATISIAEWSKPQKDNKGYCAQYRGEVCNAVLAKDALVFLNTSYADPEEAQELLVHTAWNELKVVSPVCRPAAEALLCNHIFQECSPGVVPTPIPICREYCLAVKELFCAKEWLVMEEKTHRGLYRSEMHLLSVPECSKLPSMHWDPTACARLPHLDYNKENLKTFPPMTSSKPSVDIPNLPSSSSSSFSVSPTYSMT
The assay can be described thus: SPR (Biacore), antibody captured on anti-hFc chip; 5 nM; dissociation pH 5.5. From the text: In order to study pH dependent binding of our antibodies to MuSK, the Biacore was used with the same setup as described in the paragraph entitled “Binding affinity for mouse, human and rhesus monkey recombinant MuSK in Biacore”. 6. […] For the other antibodies there is no real difference observed between pH 7.4 and 5.5.
On the technique in general: In SPR one partner is held on a chip, and binding of the other changes the refractive index at the surface.

B1: 3D10a (antibody, human IgG1, kappa, L234A L235A, V domains shown)
VH: EVQLVESGGGLVKPGGSLRLSCAASGFTFSASTMAWVRQAPGKGLEWVSSVSGDSHHIYYADSLKGRFTISRDNAKNSLYLQMNSLRAEDTAVYYCARERLLRLGVGFDSWGQGTLVTVSS
VL: DIQMTQSPSSLSASVGDRVTITCRASQRISGFVNWYQQKPGKAPKLLIYAASTLQSGVPSRFSGSGSGTDFTLTISSLQPEDFATYYCQQSYSPLYTFGQGTKLEIKR
B1: the binding result with hMuSK delta 1 (Ig2-3 Fz) was “no binding (tested: log(conc) 4.2 (about 16000 ng/ml))”. Further, in assay [1], the “AChR clusters larger or equal to 3 µm compared to agrin; Exp 1, batch Argenx” value was 64 % of agrin; the “AChR clusters larger or equal to 3 µm compared to agrin; Exp 2, batch Argenx” value is 99 % of agrin; the “AChR clusters larger or equal to 3 µm compared to agrin; Exp 3, batch UPX” value was 71 % of agrin. In assay [2], the off-rate constant (koff) – broadly, the first-order rate constant of dissociation – is 0.0001 s⁻¹.

B2: 4D3 (antibody, human IgG1, kappa, L234A L235A, V domains shown)
VH: EVQLVESGGGLVKPGGSLRLSCAASGFTFSSYTMTWVRQAPGKGLEWVSSISSGGHYIYYTDSLKGRFTISRDNAKNSLYLQMNSLRAEDTAVYYCARERLLRLGVGFDFWGQGTLVTVSS
VL: DIQMTQSPSSLSASVGDRVTITCRASQSISGYLNWYQQKPGKAPKLLIYAASTLQSGVPSRFSGSGSGTDFTLTISSLQPEDFATYYCQQSYSALYTFGQGTKLEIKR
With B2, the binding result with hMuSK delta 1 (Ig2-3 Fz) is recorded as “no binding (tested: log(conc) 4.2 (about 16000 ng/ml))”. For the same molecule, in assay [1], the “AChR clusters larger or equal to 3 µm compared to agrin; Exp 1, batch Argenx” value is 102 % of agrin; the “AChR clusters larger or equal to 3 µm compared to agrin; Exp 2, batch Argenx” value was 73 % of agrin; the “AChR clusters larger or equal to 3 µm compared to agrin; Exp 3, batch UPX” value is 72 % of agrin. The off-rate constant (koff) in assay [2] turned out to be 0.00018 s⁻¹.

B3: 3F6c (antibody, human IgG1, kappa, L234A L235A, V domains shown)
VH: EVQLVESGGGLVKPGGSLRLSCAASGFTFSSYTMDWVRQAPGKGLEWVSSIGSNGDYIYYADSVRGRFTISRDNAKNSLYLQMNSLRAEDTAVYYCARGQLAVAGTHFDYWGQGTLVTVSS
VL: DIQMTQSPSSLSASVGDRVTITCRASQKVNKYVNWYQQKPGKAPKLLIYAASTLQSGVPSRFSGSGSGTDFTLTISSLQPEDFATYYCQQSYSPLSTFGQGTKLEIKR
For the molecule B3, the binding result with hMuSK delta 1 (Ig2-3 Fz) is “no binding (tested: log(conc) 4.2 (about 16000 ng/ml))”. In assay [1], the “AChR clusters larger or equal to 3 µm compared to agrin; Exp 1, batch Argenx” value is 71 % of agrin; the “AChR clusters larger or equal to 3 µm compared to agrin; Exp 2, batch Argenx” value was 105 % of agrin; the “AChR clusters larger or equal to 3 µm compared to agrin; Exp 3, batch UPX” value was 69 % of agrin. This molecule yielded a koff in assay [2] of 0.0002 s⁻¹.

B4: 3D9b (antibody, human IgG1, kappa, L234A L235A, V domains shown)
VH: EVQLVESGGGLVKPGGSLRLSCAASGFTFSTYTMHWVRQAPGKGLEWVSSISSRSAYKYYADSVKGRFTISRDNAKNSLYLQMNSLRAEDTAVYYCARDFFQLGPPRFDSWGQGTLVTVSS
VL: DIQMTQSPSSLSASVGDRVTITCRASQRISSFLNWYQQKPGKAPKLLIYGASNLQSGVPSRFSGSGSGTDFTLTISSLQPEDFATYYCQQSYSPSYTFGQGTKLEIKR
As to B4, the binding result in the assay with hMuSK delta 1 (Ig2-3 Fz) is “no binding (tested: log(conc) 4.2 (about 16000 ng/ml))”. In assay [1], the “AChR clusters larger or equal to 3 µm compared to agrin; Exp 1, batch Argenx” value is 89 % of agrin; the “AChR clusters larger or equal to 3 µm compared to agrin; Exp 2, batch Argenx” value is 95 % of agrin; the “AChR clusters larger or equal to 3 µm compared to agrin; Exp 3, batch UPX” value is 91 % of agrin. The molecule further registered a koff in assay [2] of 4e-05 s⁻¹.

For the origin of these results see patent publication US20230110188A1 (ARGENX IIP, published 2023).
